Data reported in PMC2792576.

Molecular target: human cyclic nucleotide-gated channel β1-subunit, wild type (human) (UniProt Q14028)
Test: HEK 293 plasma membrane recruitment assay

Chain of human cyclic nucleotide-gated channel β1-subunit, wild type (human) (Q14028 whole entry): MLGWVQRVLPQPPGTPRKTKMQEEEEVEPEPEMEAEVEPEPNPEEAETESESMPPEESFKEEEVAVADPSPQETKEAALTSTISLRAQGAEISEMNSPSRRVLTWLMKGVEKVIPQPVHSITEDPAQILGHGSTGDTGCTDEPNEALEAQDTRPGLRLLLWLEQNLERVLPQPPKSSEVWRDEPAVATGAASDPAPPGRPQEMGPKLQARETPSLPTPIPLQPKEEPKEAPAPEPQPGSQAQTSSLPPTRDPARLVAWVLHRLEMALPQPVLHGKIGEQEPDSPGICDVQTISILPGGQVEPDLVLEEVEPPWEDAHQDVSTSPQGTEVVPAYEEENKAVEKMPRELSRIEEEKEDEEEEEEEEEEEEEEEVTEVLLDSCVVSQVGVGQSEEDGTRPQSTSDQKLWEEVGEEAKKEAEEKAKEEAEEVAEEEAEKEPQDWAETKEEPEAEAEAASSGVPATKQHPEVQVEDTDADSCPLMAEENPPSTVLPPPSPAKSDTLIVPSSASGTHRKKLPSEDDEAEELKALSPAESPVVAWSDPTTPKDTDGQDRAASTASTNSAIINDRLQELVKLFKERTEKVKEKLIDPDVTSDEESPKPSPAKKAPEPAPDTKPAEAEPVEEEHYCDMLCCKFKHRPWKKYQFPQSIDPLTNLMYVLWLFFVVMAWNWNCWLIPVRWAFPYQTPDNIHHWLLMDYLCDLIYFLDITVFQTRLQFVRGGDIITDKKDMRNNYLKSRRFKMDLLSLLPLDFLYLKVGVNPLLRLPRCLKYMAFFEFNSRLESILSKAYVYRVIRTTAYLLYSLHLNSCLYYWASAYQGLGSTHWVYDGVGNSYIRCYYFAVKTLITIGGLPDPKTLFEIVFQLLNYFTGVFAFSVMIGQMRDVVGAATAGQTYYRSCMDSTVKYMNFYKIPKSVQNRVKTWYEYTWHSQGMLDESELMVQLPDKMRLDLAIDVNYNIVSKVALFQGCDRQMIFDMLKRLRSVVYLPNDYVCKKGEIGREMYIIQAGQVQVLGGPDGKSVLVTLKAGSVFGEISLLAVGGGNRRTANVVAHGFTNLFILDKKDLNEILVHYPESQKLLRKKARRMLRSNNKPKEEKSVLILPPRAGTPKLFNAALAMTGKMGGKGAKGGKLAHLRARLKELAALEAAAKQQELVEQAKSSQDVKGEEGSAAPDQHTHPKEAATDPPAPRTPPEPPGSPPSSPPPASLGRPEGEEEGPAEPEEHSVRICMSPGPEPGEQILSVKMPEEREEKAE

cells with complete recruitment: 65 % of cells
Substance: ankyrin-G fused to green fluorescent protein, O70511 1-2622
